Test results taken from paper doi:10.1101/2022.06.24.497451.

Biological target: SMC3CC/RAD21N complex (human)

loss of ATPase activity compared to the WT complex when SMC3CC/RAD21N was added [%] | Substance
10 | SMC1ACC-R57A/RAD21C complex
10 | SMC1ACC-Δ58-62/RAD21C complex
